Our source for the binding result, koff and Kd values is publication PMC11503491 (ACS Central Science, 2024).

Assay [1] addresses wild-type SARS-CoV-2 Wuhan Hu-1 receptor-binding domain (residues 319-533) (SARS-CoV-2 Wuhan-Hu-1). Briefly: BLI. As to conditions: both partners purified.
The target in assay [2] is SARS-CoV-2 RBD (RWT), wild-type Wuhan Hu-1 receptor-binding domain, residues 319-533 (SARS-CoV-2 Wuhan Hu-1). Briefly: BLI. The settings on record: both partners purified.

As usually defined, the koff is a measure of how fast the partners let go of each other. Usually Kd stands for the equilibrium constant for the complex coming apart. A low value points to tighter binding.

B1: SA55 (antibody, V domains shown)
VH: QVQLVQSGAEVKKPGSSVKVSCKASGGTFRSHVISWVRQAPGQGLEWMGGFIPLFGTTIYAQAFQGRVMISADESTSTAYMELSSLRSEDTAVYFCARLFPNGDPNSPEDGFDIWGQGTLVTVSS
VL: DIQMTQSPSSLSASVGDRVTITCQASQDIGNYLNWYQQKPGKAPKLLIYDASHLETGVPSRFSGSGSGTDFTFTISSLQPEDIATYYCQRYDDLPSYTFGQGTKVEIK
notes: also called S2X259-like class 4 antibody
For the molecule B1, the binding result in assay [1] is reported as “binds”.

B2: S2X259 IgG (antibody, V domains shown)
VH: QVQLVQSGAEVKKPGSSVKVSCKASGGIFNTYTISWVRQAPGQGLEWMGRIILMSGMANYAQKIQGRVTITADKSTSTAYMELTSLRSDDTAVYYCARGFNGNYYGWGDDDAFDIWGQGTLVTVYS
VL: QTVLTQPPSVSGAPGQRVTISCTGSNSNIGAGYDVHWYQQLPGTAPKLLICGNSNRPSGVPDRFSGSKSGTSASLAITGLQAEDEADYYCQSYDSSLSGPNWVFGGGTKLTVL
notes: also called class 4 mAb
Molecule B2 came in with a koff in assay [1] of 0.0011 s⁻¹.

B3: fragment antigen-binding region (Fab) of S2X259 (Fab, V domains shown)
VH: B2 VH
VL: B2 VL
notes: also called S2X259 Fab
B3: the Kd in assay [1] is 0.97 ± 0.5 nM.

B4: CB6 (class 1 RBD-directed antibody) (antibody, V domains shown)
VH: EVQLVESGGGLVQPGGSLRLSCAASGFTVSSNYMSWVRQAPGKGLEWVSVIYSGGSTFYADSVKGRFTISRDNSMNTLFLQMNSLRAEDTAVYYCARVLPMYGDYLDYWGQGTLVTVSS
VL: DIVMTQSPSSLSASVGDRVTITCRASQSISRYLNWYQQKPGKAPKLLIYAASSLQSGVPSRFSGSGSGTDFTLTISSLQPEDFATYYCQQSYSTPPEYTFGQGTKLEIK
Consider B4, for which the koff in assay [2] amounted to 0.013 s⁻¹.

B5: CB6 (antibody, V domains shown)
VH: B4 VH
VL: not shown
As for B5, in assay [1], the binding result is given as “binds”.

B6: C022 (antibody, V domains shown)
VH: QVQLQESGPGLVKPSETLSVTCTVSGGSISSSRYYWGWIRQPPGKGLEWIGSIYYSGSTYYNPSLKSRVTISVDTSKNQFSLKLSSVTAADTAVYYCARHAAAYYDRSGYYFIEYFQHWGQGTLVTVSS
VL: DIQMTQSPSTLSASVGDSVTITCRASQSISSWLAWYQQKPGKAPKLLIYKASSLESGVPSRFSGSGSGTEFTLTISSLQPDDFATYYCQQYNNYRYTFGQGTKLEIK
notes: as for B1
Regarding B6, the binding result in assay [1] was “binds”.

B7: CR3022 (class 4 RBD-directed antibody) (antibody, V domains shown)
VH: QMQLVQSGTEVKKPGESLKISCKGSGYGFITYWIGWVRQMPGKGLEWMGIIYPGDSETRYSPSFQGQVTISADKSINTAYLQWSSLKASDTAIYYCAGGSGISTPMDVWGQGTTVTVSS
VL: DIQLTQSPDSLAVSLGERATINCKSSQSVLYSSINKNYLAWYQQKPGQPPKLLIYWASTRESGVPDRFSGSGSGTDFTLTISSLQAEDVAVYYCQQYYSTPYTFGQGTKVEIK
notes: IgG
Molecule B7 displayed a koff in assay [2] of 0.016 s⁻¹.

B8: CR3022 (antibody, V domains shown)
VH: B7 VH
VL: not shown
notes: also called class 4 antibody
As to B8, the binding result in assay [1] is “binds”.

B9: C002 (antibody, V domains shown)
VH: EVQLVESGGGVVQPGRSLRLSCAASGFTFSIYGMHWVRQAPGKGLEWVAVISYDGSNKYYADSVKGRFTISRDNSKNTLYLQMNSLRAEDTAVYYCAKEGRPSDIVVVVAFDYWGQGTLVTVSS
VL: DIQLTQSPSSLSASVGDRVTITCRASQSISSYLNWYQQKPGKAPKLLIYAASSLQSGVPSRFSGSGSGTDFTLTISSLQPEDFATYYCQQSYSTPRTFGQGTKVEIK
With B9, the binding result in assay [1] was “binds”.

B10: 1-16 (antibody, V domains shown)
VH: QVQLVQSGAEVKKPGASVKVSCKASGYTFTSYYMHWVRQAPGQGLEWMGIINSSGGSTSYAQKFQGRVTMTRDTSTSTVYMELSSLRSEDTAVYYCARPPRNYYDRSGYYQRAEYFQHWGQGTLVTVSS
VL: DIQLTQSPSSLSASVGDRVTITCQASQDISNYLNWYQQRPGKAPKLLIYDASNLETGVPSRFSGSGSGTDFTFTISSLQPEDIATYYCQQYDNPPLTFGGGTKLEIK
notes: as for B1
For B10, the binding result in assay [1] is “binds”.

B11: COVA2-15 (antibody, V domains shown)
VH: QVQLLESGGGLVQPGGSLRLSCAASGFTFSSYAMSWVRQAPGKGLEWASAISGSGGSTYYADSVEGRFTISRDNSKNTLYLQMNSLRAEDTAVYYCAKDTGYCGDDCYIKLIRGGPDYWGQGTLVTVSS
VL: DIVMTQSPLSLPVTLGQPASISCRSSQSLVYSDGNTFLNWFQQRPGQSPRRLIYQVSNRDSGVPDRFSGSGSGTDFTLKISRVEAEDVGVYYCMQGTHWPRTFGQGTKLEIK
notes: also called class 2 antibody
For B11, the binding result in assay [1] is “binds”.
